Laboratory results from US20230235040A1 (ALMIRALL S A, published 2023).
Where a chain is given by its changes, count along the chain named.

How the values were obtained:
[1] = target: T1, hu-IL-36β (human IL-36β, N-terminally truncated active form R5-E157) (human); assay: SPR (Biacore 8K), biotinylated hu-IL-36β captured on CAP chip, Fab injected, 37°C
T1 construct: Purification tag cleaved off; Biotinylated where captured; also called hu-IL-36b
T1 chain: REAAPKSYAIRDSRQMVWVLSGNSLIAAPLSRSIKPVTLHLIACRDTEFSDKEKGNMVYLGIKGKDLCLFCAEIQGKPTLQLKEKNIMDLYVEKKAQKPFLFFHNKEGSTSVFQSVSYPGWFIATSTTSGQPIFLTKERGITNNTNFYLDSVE
Procedure: (§1) Briefly, a 1:4 dilution of Biotin CAPture Reagent (GE) into HBS-EP buffer (0.01 M HEPES pH 7.4, 0.15 M NaCl, 3 mM EDTA, 0.005% Surfactant P20) was applied to a CAP sensor chip at 2 uL/min flow rate. For kinetics measurements, 6 nM biotinylated human IL-36β was captured at 10 uL/min to achieve ˜50 response units in the second flow cell (FC2). FC1 was kept as a reference. […] The sensorgram was recorded and subject to reference and buffer subtraction before evaluating by BIACORE® 8K Evaluation Software (version 1.1.1.7442). Association rates (kₒₙ) and dissociation rates (koff) were calculated using a simple one-to-one Langmuir binding model.

[2] = target: T1, hu-IL-36β (human IL-36β, N-terminally …); assay: cell-based or functional assay
[3] = target: T2, hu-IL-36γ (human IL-36γ, N-terminally truncated active form S18-D169) (human, UniProt Q9NZH8 18-169); assay: cell-based or functional assay
T2 sequence: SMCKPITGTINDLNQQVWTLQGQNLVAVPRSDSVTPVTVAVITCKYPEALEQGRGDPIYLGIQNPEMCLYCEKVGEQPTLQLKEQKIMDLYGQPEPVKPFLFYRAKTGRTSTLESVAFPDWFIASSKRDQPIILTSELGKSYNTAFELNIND

[4] = target: T3, hu-IL-36α (human IL-36α, N-terminally truncated active form K6-F158) (human, UniProt Q9UHA7 6-158); assay: cell-based or functional assay
T3 sequence: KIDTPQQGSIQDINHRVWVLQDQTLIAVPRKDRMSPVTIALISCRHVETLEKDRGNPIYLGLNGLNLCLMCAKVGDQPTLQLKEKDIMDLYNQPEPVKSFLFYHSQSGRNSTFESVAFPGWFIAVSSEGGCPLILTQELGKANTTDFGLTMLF

[5] = target: T2, hu-IL-36γ (human IL-36γ, N-terminally …); assay: phage competition ELISA: Fab on phage, soluble hu-IL-36γ titrated against coated hu-IL-36γ
Procedure: (§2) Selected phages with top binding signal were purified to perform phage competition ELISA. The optimal phage concentration was incubated with serially-diluted human IL-36α or human IL-36γ in ELISA buffer in NUNC F plate for two hours. 80 μL of the mixture was transferred to human IL-36α or human IL-36γ coated wells for 15 min to capture unbound phage. The plate was washed with wash buffer (0.05% TWEEN®20 in PBS), and HRP-conjugated anti-M13 antibody (Sino biological, Cat #11973-MM05-H-50) was added in ELISA buffer for 30 min. The plates were washed and developed as described above. The absorbance at 450 nm was plotted as a function of antigen concentration in solution to determine phage IC50.

[6] = target: T3, hu-IL-36α (human IL-36α, N-terminally …); assay: phage competition ELISA: Fab on phage, soluble hu-IL-36α titrated against coated hu-IL-36α
Procedure: as §2

[7] = target: T2, hu-IL-36γ (human IL-36γ, N-terminally …); assay: SPR (Biacore 8K), biotinylated hu-IL-36 captured on CAP chip, Fab injected, 37°C
Procedure: as §1, with “3” for “6”, “IL-36α and human IL-36γ” for “IL-36β”

[8] = target: T3, hu-IL-36α (human IL-36α, N-terminally …); assay: as above
Procedure: as §1, with “3” for “6”, “IL-36α and human IL-36γ” for “IL-36β”

B1: mAb6_2.5 Fab (Fab, V domains shown)
VH: ELQLQESGPGLVKPSETLSLTCTVSGGSITASNYYWGWIRQPPGKGLEWIGSIDYTGSTYYEPSLKSRVTISVDTSKNQFSLKLSSVTAADTAVYYCATGSYYETYLGFDVWGQGTLVTVSS
VL: ESVLTQPPSVSGAPGQRVTISCTGSSSNIGAHYDVHWYQQLPGTAPKLLIYGNDNRPSGVPDRFSGSKSGTSASLAITGLQAEDEADYYCQSYDYSLSGYVFGGGTKLTVL
notes: Recombinant Fab with 8xHis tag (Expi293F)
Kd [1]: 0.66 nM
koff [1]: 0.000476 s⁻¹
kon [1]: 717000 M⁻¹ s⁻¹
IC50, IL-36-stimulated IL-8 secretion by HaCat cells [2]: 0.2 nM

B2: mAb3.0 recombinant human IgG1 (antibody, V domains shown)
VH: QLQLQESGPGLVKPSETLSLTCTVSGGSISSTSYYWGWIRQPPGKGLEWIGSIHYSGNTYYNPSLKSRVTISVDTSKNQFSLKLSSVTAADTAVYYCARVHYGGYIPRRFDHWGQGTLVTVSS
VL: B1 VL with E1Q, H32G, D54T, S98R
IC50, HEK-Blue IL-36R SEAP reporter assay [3]: 30 nM
IC50, HEK-Blue IL-36R SEAP reporter assay [4]: 90 nM

B3: mAb5.0 recombinant human IgG1 (antibody, V domains shown)
VH: EVQLLESGGGLVQPGGSLRLSCAASGFTFSTYAMSWVRQAPGKGLEWVSGISGGSGYTYYADSVKGRFTISRDNSKNTLYLQMNSLRAEDTAVYYCARVVTYRDPPASFDYWGQGTLVTVSS
VL: B1 VL with E1Q, S98K, G99A
IC50, HEK-Blue IL-36R SEAP reporter assay [3]: 142 nM
IC50, HEK-Blue IL-36R SEAP reporter assay [4]: 95 nM

B4: mAb1.0 recombinant human IgG1 (antibody, V domains shown)
VH: QVQLVESGGGVVQPGRSLRLSCAASGFSFSAYAMHWVRQAPGKGLEWVAVISYDGTNEYYADSVKGRFTISRDNSKNTLYLQMNSLRAEDTAVYYCARGIRIFTSYFDSWGQGTLVTVSS
VL: B1 VL with E1Q, G52S, D54N, S98R
IC50, HEK-Blue IL-36R SEAP reporter assay [3]: 5.3 nM
IC50, HEK-Blue IL-36R SEAP reporter assay [4]: 43 nM

B5: mAb4.0 recombinant human IgG1 (antibody, V domains shown)
VH: QLQLQESGPGLVKPSETLSLTCTVSGGSIGSRSYYWGWIRQPPGKGLEWIGSIHYSGTTYYNPSLKSRVTISVDTSKNQFSLKLSSVTAADTAVYYCARVAPSYPRVFDYWGQGTLVTVSS
VL: B1 VL with E1Q, H32G, D54R, S98R, G99V
IC50, HEK-Blue IL-36R SEAP reporter assay [3]: 52 nM
IC50, HEK-Blue IL-36R SEAP reporter assay [4]: 16 nM

B6: mAb6 Fab (Fab, V domains shown)
VH: B1 VH with A31S, E62N, T99R, S101K
VL: B1 VL with H32G, D54T, Y95I, Y100W
IC50, IL-36-stimulated IL-8 secretion by HaCat cells [2]: 0.15 nM

B7: mAb2.3 Fab (phage-displayed) (Fab, V domains shown)
VH: ELQLQESGPGLVKPSETLSLTCTVSGGSISTSSDYWGWIRQPPGKGLEWIGSIYYTGNTYYLPSLKSRVTISVDTSKNQFSLKLSSVTAADTAVYYCSRVRYGVGVPRYFDPWGQGTLVTVSS
VL: B1 VL
IC50 [5]: 2.39 nM
IC50 [6]: 0.82 nM

B8: mAb2.1 Fab (phage-displayed) (Fab, V domains shown)
VH: B7 VH with T31D, D34Y, L62N, P63S, S98A
VL: B1 VL
IC50 [5]: 4.86 nM
IC50 [6]: 1.03 nM

B9: mAb2.2 Fab (phage-displayed) (Fab, V domains shown)
VH: B7 VH with T31E, D34Y, L62N, S98A, R99G
VL: B1 VL
IC50 [5]: 3.79 nM
IC50 [6]: 0.75 nM

B10: mAb2.8 Fab (Fab, V domains shown)
VH: B7 VH with T31D, D34Y, N58E, L62A, S98A, V100L
VL: B1 VL
notes: as for B1
Kd [7]: 0.17 nM
koff [7]: 0.000301 s⁻¹
kon [7]: 1.8e+06 M⁻¹ s⁻¹
Kd [8]: 0.14 nM
koff [8]: 0.000254 s⁻¹
kon [8]: 1.83e+06 M⁻¹ s⁻¹

B11: mAb6_2.9 Fab (Fab, V domains shown)
VH: B1 VH with A31S, E62N, S101K
VL: B1 VL
notes: as for B1
Kd [1]: 1.37 nM
koff [1]: 0.000411 s⁻¹
kon [1]: 299000 M⁻¹ s⁻¹

B12: mAb2.9 Fab (Fab, V domains shown)
VH: B7 VH with T31D, D34Y, N58E, L62A, S98A, R101K
VL: B1 VL
notes: as for B1
Kd [7]: 0.24 nM
koff [7]: 0.000565 s⁻¹
kon [7]: 2.4e+06 M⁻¹ s⁻¹
Kd [8]: 0.12 nM
koff [8]: 0.00026 s⁻¹
kon [8]: 2.19e+06 M⁻¹ s⁻¹

B13: mAb2.12 Fab (Fab, V domains shown)
VH: B7 VH with T31E, D34Y, N58E, L62A, S98A, R101K
VL: B1 VL
notes: as for B1
Kd [7]: 0.28 nM
koff [7]: 0.000503 s⁻¹
kon [7]: 1.81e+06 M⁻¹ s⁻¹
Kd [8]: 0.16 nM
koff [8]: 0.000277 s⁻¹
kon [8]: 1.7e+06 M⁻¹ s⁻¹

B14: mAb6_2.8 Fab (Fab, V domains shown)
VH: B1 VH with E62N, T99S, S101K
VL: B1 VL
notes: as for B1
Kd [1]: 1.08 nM
koff [1]: 0.000343 s⁻¹
kon [1]: 317000 M⁻¹ s⁻¹
IC50, IL-36-stimulated IL-8 secretion by HaCat cells [2]: 0.33 nM

B15: mAb2.7 Fab (phage-displayed) (Fab, V domains shown)
VH: B7 VH with T31R, D34Y, L62W, S98T
VL: B1 VL
IC50 [5]: 1.53 nM
IC50 [6]: 1.2 nM

B16: mAb6_2.10 Fab (Fab, V domains shown)
VH: B1 VH with A31S, E62Q, T99R, S101N
VL: B1 VL
notes: as for B1
Kd [1]: 2.47 nM
koff [1]: 0.00103 s⁻¹
kon [1]: 415000 M⁻¹ s⁻¹

B17: mAb6_2.7 Fab (Fab, V domains shown)
VH: B1 VH with Y34T, E62N, S101K
VL: B1 VL
notes: as for B1
Kd [1]: 0.61 nM
koff [1]: 0.00018 s⁻¹
kon [1]: 297000 M⁻¹ s⁻¹
IC50, IL-36-stimulated IL-8 secretion by HaCat cells [2]: 0.2 nM

B18: mAb6_2.6 Fab (Fab, V domains shown)
VH: B1 VH with S101N
VL: B1 VL
notes: as for B1
Kd [1]: 0.82 nM
koff [1]: 0.000705 s⁻¹
kon [1]: 856000 M⁻¹ s⁻¹

B19: mAb2.5 Fab (phage-displayed) (Fab, V domains shown)
VH: B7 VH with T31E, D34Y, S98A
VL: B1 VL
IC50 [5]: 1.88 nM
IC50 [6]: 0.77 nM

B20: mAb2.4 Fab (phage-displayed) (Fab, V domains shown)
VH: B7 VH with T31N, D34Y, S98A
VL: B1 VL
IC50 [5]: 1.52 nM
IC50 [6]: 0.68 nM

B21: mAb2.6 Fab (phage-displayed) (Fab, V domains shown)
VH: B7 VH with D34Y, Y35H, L62M, S98V
VL: B1 VL
IC50 [5]: 1.99 nM
IC50 [6]: 1.62 nM
